# Reference: the supplement of paper PMC6379048
# Key:
# Assay in all cases: Kd (EC50 corrected by depletion factor)
# [1] = biological target: T1, MEX3C (UniProt Q5U5Q3)
# T1 sequence: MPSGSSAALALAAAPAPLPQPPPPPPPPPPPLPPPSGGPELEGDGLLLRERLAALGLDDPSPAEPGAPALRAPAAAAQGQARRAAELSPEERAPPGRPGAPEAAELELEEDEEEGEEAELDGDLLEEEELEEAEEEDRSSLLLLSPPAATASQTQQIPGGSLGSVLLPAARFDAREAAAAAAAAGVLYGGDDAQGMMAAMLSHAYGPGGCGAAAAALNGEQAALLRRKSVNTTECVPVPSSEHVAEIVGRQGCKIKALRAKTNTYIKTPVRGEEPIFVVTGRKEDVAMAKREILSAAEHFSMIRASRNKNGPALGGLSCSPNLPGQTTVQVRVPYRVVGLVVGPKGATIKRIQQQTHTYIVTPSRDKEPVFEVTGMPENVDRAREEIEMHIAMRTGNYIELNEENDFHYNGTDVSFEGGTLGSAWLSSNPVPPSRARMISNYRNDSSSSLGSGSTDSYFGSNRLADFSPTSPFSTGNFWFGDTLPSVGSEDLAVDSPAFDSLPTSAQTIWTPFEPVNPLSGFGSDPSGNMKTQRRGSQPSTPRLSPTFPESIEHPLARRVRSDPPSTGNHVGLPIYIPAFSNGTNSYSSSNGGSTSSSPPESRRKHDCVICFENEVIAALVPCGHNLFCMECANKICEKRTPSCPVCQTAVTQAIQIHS
# Procedure, shortened: (§1)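 Over three biological replicates and two independent experiments, proteins captured on NHS-Sepharose beads carrying 5′-amino-C6 RNA oligos were quantified by label-free LC-MS/MS and normalised to the control. Capture lasted 30 min at 4°C and followed a 1 h pre-incubation at 4°C of HEK293-FT lysate (2.5 mg protein/well) with the same oligos in free form (0 nM to 30 μM). EC50 was taken from a four-parameter log-logistic fit, and Kd was EC50 corrected by a protein-dependent depletion factor.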
# [2] = biological target: T2, PRPF31 (UniProt Q8WWY3)
# T2 sequence: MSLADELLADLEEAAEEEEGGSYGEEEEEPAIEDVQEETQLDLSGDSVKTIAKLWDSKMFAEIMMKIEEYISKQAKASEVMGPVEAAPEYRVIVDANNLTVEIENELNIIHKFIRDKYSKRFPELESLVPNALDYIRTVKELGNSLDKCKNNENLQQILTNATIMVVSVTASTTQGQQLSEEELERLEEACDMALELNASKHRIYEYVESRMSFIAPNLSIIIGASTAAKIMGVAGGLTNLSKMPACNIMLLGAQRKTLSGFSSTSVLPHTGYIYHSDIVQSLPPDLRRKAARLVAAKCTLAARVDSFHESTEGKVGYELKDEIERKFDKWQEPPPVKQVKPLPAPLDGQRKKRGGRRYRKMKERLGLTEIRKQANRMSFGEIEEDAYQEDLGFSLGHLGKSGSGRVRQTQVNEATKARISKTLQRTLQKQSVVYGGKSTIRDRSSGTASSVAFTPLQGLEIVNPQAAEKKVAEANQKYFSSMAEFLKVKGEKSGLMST
# Procedure, shortened: as §1
# [3] = biological target: MRPL11 (UniProt Q9Y3B7)
# Procedure, shortened: as §1
# [4] = biological target: MRPL13 (UniProt Q9BYD1)
# Procedure, shortened: as §1
# [5] = biological target: CSNK2A1 (UniProt P68400)
# Procedure, shortened: as §1
# [6] = biological target: T3, SF3B3 (UniProt Q15393)
# T3 sequence: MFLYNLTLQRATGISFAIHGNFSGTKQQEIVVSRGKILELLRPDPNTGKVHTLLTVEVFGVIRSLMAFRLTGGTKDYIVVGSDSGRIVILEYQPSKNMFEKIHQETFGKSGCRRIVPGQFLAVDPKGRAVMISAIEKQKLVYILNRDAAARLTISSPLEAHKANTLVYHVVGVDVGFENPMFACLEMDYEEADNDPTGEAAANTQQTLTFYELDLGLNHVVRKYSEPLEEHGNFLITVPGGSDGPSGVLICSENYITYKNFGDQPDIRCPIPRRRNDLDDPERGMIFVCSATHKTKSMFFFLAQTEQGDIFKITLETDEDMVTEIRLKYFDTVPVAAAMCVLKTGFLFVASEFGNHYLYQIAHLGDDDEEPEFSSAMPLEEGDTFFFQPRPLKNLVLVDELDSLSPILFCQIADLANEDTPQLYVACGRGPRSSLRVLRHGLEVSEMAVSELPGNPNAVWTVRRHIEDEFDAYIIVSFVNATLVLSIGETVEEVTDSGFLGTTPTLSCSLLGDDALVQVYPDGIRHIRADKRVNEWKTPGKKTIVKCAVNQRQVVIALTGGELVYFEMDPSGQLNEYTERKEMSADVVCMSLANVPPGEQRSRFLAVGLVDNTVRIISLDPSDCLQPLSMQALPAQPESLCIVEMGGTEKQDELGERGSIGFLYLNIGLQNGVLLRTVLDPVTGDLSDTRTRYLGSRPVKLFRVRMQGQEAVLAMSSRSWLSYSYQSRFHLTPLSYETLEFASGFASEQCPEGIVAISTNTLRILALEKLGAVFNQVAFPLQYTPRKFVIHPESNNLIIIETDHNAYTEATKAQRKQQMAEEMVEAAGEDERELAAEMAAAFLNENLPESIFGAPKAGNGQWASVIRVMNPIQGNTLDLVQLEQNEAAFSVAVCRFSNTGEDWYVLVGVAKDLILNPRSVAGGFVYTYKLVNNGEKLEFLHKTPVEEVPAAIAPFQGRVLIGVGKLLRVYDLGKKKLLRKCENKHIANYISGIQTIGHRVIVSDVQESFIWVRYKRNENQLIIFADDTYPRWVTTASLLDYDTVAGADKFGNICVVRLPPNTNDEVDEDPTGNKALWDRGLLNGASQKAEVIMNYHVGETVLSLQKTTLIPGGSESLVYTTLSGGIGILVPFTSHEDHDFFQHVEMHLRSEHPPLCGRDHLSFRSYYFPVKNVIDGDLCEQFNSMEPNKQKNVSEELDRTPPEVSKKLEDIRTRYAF
# Procedure, shortened: as §1
# Sequence of CSNK2A1 (P68400 whole entry, looked up): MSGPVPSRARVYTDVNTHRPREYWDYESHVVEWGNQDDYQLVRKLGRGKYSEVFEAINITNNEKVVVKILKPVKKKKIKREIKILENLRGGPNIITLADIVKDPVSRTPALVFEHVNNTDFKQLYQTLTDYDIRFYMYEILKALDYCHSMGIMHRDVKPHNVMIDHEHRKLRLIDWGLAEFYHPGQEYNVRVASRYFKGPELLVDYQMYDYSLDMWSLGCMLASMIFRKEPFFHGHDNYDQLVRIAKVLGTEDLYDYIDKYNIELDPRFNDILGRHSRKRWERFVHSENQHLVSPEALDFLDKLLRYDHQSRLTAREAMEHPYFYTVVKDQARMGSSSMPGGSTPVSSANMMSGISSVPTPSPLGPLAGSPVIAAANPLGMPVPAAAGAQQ
sequence,measurement,setting,value
UAUUUAU,Kd,[1],339 nM
same,Kd,[2],2850 nM
CUGUCCU,Kd,[3],53.7 nM
same,Kd,[4],78.4 nM
AAUAAA,Kd,[5],78.6 nM
same,Kd,[6],669 nM
